Laboratory results published in paper doi:10.1101/2024.10.11.617635 (bioRxiv, 2024).

B1: NADK (non-methylated; construct not stated) (enzyme, human, UniProt O95544 1-446, looked up)
chain: MEMEQEKMTMNKELSPDAAAYCCSACHGDETWSYNHPIRGRAKSRSLSASPALGSTKEFRRTRSLHGPCPVTTFGPKACVLQNPQTIMHIQDPASQRLTWNKSPKSVLVIKKMRDASLLQPFKELCTHLMEENMIVYVEKKVLEDPAIASDESFGAVKKKFCTFREDYDDISNQIDFIICLGGDGTLLYASSLFQGSVPPVMAFHLGSLGFLTPFSFENFQSQVTQVIEGNAAVVLRSRLKVRVVKELRGKKTAVHNGLGENGSQAAGLDMDVGKQAMQYQVLNEVVIDRGPSSYLSNVDVYLDGHLITTVQGDGVIVSTPTGSTAYAAAAGASMIHPNVPAIMITPICPHSLSFRPIVVPAGVELKIMLSPEARNTAWVSFDGRKRQEIRHGDSISITTSCYPLPSICVRDPVSDWFESLAQCLHWNVRKKQAHFEEEEEEEEEG
B2: methylated NADK (construct not stated) (enzyme, human, UniProt O95544 1-446, looked up)
chain: B1 chain
modifications: arginine methylation (the paper's sites are R39, R41 and R45, mono- and di-methylated); extent not stated

Molecular target: the molecule itself

Protein	stoichiometry N
B1	4
B2	4
